How the values were obtained:
[1] = substrate: CC(O)CC(=O)SCCNC(=O)CCNC(=O)[C@H](O)C(C)(C)COP(=O)(O)OP(=O)(O)OC[C@H]1O[C@@H](n2cnc3c(N)ncnc32)[C@H](O)[C@@H]1OP(=O)(O)O; assay: purified protein; conditions: 50 mM HEPES-K pH 8.0, 2 mM EDTA, 0.3 mM DTNB, 37 °C
[2] = substrate: CC(C)(COP(=O)(O)OP(=O)(O)OC[C@H]1O[C@@H](n2cnc3c(N)ncnc32)[C@H](O)[C@@H]1OP(=O)(O)O)[C@@H](O)C(=O)NCCC(=O)NCCSC(=O)CCC(=O)O; assay: purified protein; conditions: 50 mM HEPES-K pH 8.0, 2 mM EDTA, 0.3 mM DTNB, 37 °C
[3] = substrate: CC(C(=O)O)C(=O)SCCNC(=O)CCNC(=O)[C@H](O)C(C)(C)COP(=O)(O)OP(=O)(O)OC[C@H]1O[C@@H](n2cnc3c(N)ncnc32)[C@H](O)[C@@H]1OP(=O)(O)O; assay: purified protein; conditions: 50 mM HEPES-K pH 8.0, 2 mM EDTA, 0.3 mM DTNB, 37 °C
[4] = substrate: CCCCCCCC(=O)SCCNC(=O)CCNC(=O)[C@H](O)C(C)(C)COP(=O)(O)OP(=O)(O)OC[C@H]1O[C@@H](n2cnc3c(N)ncnc32)[C@H](O)[C@@H]1OP(=O)(O)O; assay: purified protein; conditions: 50 mM HEPES-K pH 8.0, 2 mM EDTA, 0.3 mM DTNB, 37 °C
[5] = substrate: CC(=O)SCCNC(=O)CCNC(=O)[C@H](O)C(C)(C)COP(=O)(O)OP(=O)(O)OC[C@H]1O[C@@H](n2cnc3c(N)ncnc32)[C@H](O)[C@@H]1OP(=O)(O)O; assay: purified protein; conditions: 50 mM HEPES-K pH 8.0, 2 mM EDTA, 0.3 mM DTNB, 37 °C
[6] = substrate: CC(C)(COP(=O)(O)OP(=O)(O)OC[C@H]1O[C@@H](n2cnc3c(N)ncnc32)[C@H](O)[C@@H]1OP(=O)(O)O)[C@@H](O)C(=O)NCCC(=O)NCCSC(=O)C[C@@](C)(O)CC(=O)O; assay: purified protein; conditions: 50 mM HEPES-K pH 8.0, 2 mM EDTA, 0.3 mM DTNB, 37 °C
[7] = substrate: CCCCCCCCCCCCCCCCCC(=O)SCCNC(=O)CCNC(=O)[C@H](O)C(C)(C)COP(=O)(O)OP(=O)(O)OC[C@H]1O[C@@H](n2cnc3c(N)ncnc32)[C@H](O)[C@@H]1OP(=O)(O)O; assay: purified protein; conditions: 50 mM HEPES-K pH 8.0, 2 mM EDTA, 0.3 mM DTNB, 37 °C
[8] = substrate: CCCCCCCCCCCCCCCC(=O)SCCNC(=O)CCNC(=O)[C@H](O)C(C)(C)COP(=O)(O)OP(=O)(O)OC[C@H]1O[C@@H](n2cnc3c(N)ncnc32)[C@H](O)[C@@H]1OP(=O)(O)O; assay: purified protein; conditions: 50 mM HEPES-K pH 8.0, 2 mM EDTA, 0.3 mM DTNB, 37 °C
[9] = substrate: CC(C)(COP(=O)(O)OP(=O)(O)OC[C@H]1O[C@@H](n2cnc3c(N)ncnc32)[C@H](O)[C@@H]1OP(=O)(O)O)[C@@H](O)C(=O)NCCC(=O)NCCSC(=O)CCCC(=O)O; assay: purified protein; conditions: 50 mM HEPES-K pH 8.0, 2 mM EDTA, 0.3 mM DTNB, 37 °C
[10] = substrate: CC(C)(COP(=O)(O)OP(=O)(O)OC[C@H]1O[C@@H](n2cnc3c(N)ncnc32)[C@H](O)[C@@H]1OP(=O)(O)O)[C@@H](O)C(=O)NCCC(=O)NCCSC(=O)Cc1ccccc1; assay: purified protein; conditions: 50 mM HEPES-K pH 8.0, 2 mM EDTA, 0.3 mM DTNB, 37 °C
[11] = substrate: CCCCCC(=O)SCCNC(=O)CCNC(=O)[C@H](O)C(C)(C)COP(=O)(O)OP(=O)(O)OC[C@H]1O[C@@H](n2cnc3c(N)ncnc32)[C@H](O)[C@@H]1OP(=O)(O)O; assay: purified protein; conditions: 50 mM HEPES-K pH 8.0, 2 mM EDTA, 0.3 mM DTNB, 37 °C
[12] = target: the molecule itself; assay: SEC

B1: PA5202 (enzyme, Pseudomonas aeruginosa, UniProt Q9HTY7 1-129, looked up)
chain: MSEMPAREQMISAYSELVGLDPVSLGDGVAEVRLPMAAHLRNRGGVMHGGALFSLMDVTMGLACSSSHGFDRQSVTLECKINYIRAVADGEVRCVARVLHAGRRSLVVEAEVRQGDKLVAKGQGTFAQL
[1]
  Km: 500 ± 50 µM
  kcat: 2 ± 0.1 s⁻¹
  kcat/Km: 4000 M⁻¹ s⁻¹
[2]
  Km: 100 ± 20 µM
  kcat: 0.8 ± 0.03 s⁻¹
  kcat/Km: 7000 M⁻¹ s⁻¹
[3]
  Km: 400 ± 40 µM
  kcat: 0.3 ± 0.01 s⁻¹
  kcat/Km: 800 M⁻¹ s⁻¹
[4]
  Km: 400 ± 60 µM
  kcat: 2.4 ± 0.2 s⁻¹
  kcat/Km: 7000 M⁻¹ s⁻¹
[5]
  Km: 500 ± 100 µM
  kcat: 0.2 ± 0.03 s⁻¹
  kcat/Km: 400 M⁻¹ s⁻¹
[6]
  Km: 100 ± 10 µM
[7]
  Km: 5 ± 1 µM
  kcat: 0.04 ± 0.003 s⁻¹
  kcat/Km: 8000 M⁻¹ s⁻¹
[8]
  Km: 20 ± 10 µM
  kcat: 0.3 ± 0.03 s⁻¹
  kcat/Km: 13000 M⁻¹ s⁻¹
[9]
  Km: 700 ± 100 µM
  kcat: 26.8 ± 0.9 s⁻¹
  kcat/Km: 40000 M⁻¹ s⁻¹
[10]
  Km: 1100 ± 10 µM
  kcat: 0.1 ± 0.01 s⁻¹
  kcat/Km: 100 M⁻¹ s⁻¹
[11]
  Km: 200 ± 20 µM
[12]
  stoichiometry N: 4

B2: PA2801 (enzyme, Pseudomonas aeruginosa)
chain: MADRQLLHTAHIPVRWGDMDSYGHVNNTLYFQYLEEARVAWFETLGIDLEGAAEGPVVLQSLHTYLKPVVHPATVVVELYAGRLGTSSLVLEHRLHTLEDPQGTYGEGHCKLVWVRHAENRSTPVPDSIRAAIA
[12]
  stoichiometry N: 4

B3: PA1835 (natural protein, Pseudomonas aeruginosa)
chain: MSQMMQMYQQVGPAQFSAMIGQFAPYFASIAPQFVELRPGYAEVTFPKRREVLNHIGTVHAIALCNAAELAAGTMTDASIPAGHRWIPRGMTVEYLAKATGDVRAVADGSQIDWQATGNLVVPVVAYVDDKPVFRAEITMYVSQA
[12]
  stoichiometry N: 2

B4: PA5185 (enzyme, Pseudomonas aeruginosa)
chain: MATAPRPLREQYLHFQPISTRWHDNDIYGHVNNVTYYAFFDTAVNTYLIERGGLDIQGGEVIGLVVSSSCDYFAPVAFPQRIEMGLRVARLGNSSVQYELALFLEGQREACAAGRFVHVFVERRSSRPVAIPQELRDALAALQSSAQ
[12]
  stoichiometry N: 4

B5: PA5026 (natural protein, Pseudomonas aeruginosa)
chain: MPLPTELARHLTEEKIAFVQRSGLRAEVLEPGYVRLRMPGAGNENHIGSMYAGALFTLAELPGGALFLTSFDSARFYPIVKEMTLRFRRPAKGDIRVEARLDAERIRQLETEAGERGKAEYSLELQLTDEQGEVVAESAALYQLRSHARP
[12]
  stoichiometry N: 2
